Measurements as given in patent US11549123B2, “Plant EPSP synthases and methods of use” (PIONEER HI-BRED INTERNATIONAL, INC., priority 2015, dated 2023).
Changes are numbered by the printed parent chain. Names may count otherwise.

What was measured:
Settings in all cases: other: PEP varied; pH 7.0
[1] = substrate: C=C(OP(=O)(O)O)C(=O)O; experiment: EPSPS substrate saturation kinetics, 771-C2; assay type: biochemical, Zea mays
Experimental: (§1) EPSPS activity was determined by quantifying the phosphate generated from the EPSPS reaction. Release of inorganic phosphate was coupled to reaction with 2-amino-6-mercapto-7-methylpurine ribonucleoside, catalyzed by purine-nucleoside phosphorylase (M R Webb, Proc. Natl. Acad. Sci. 89:4884-4887, 1992). The absorbance change that occurs was monitored at 360 nm, where the extinction is 11,200 M^−1 cm^−1, with a Spectramax plate reader (Molecular Devices). To determine kinetic parameters, the varied substrate was present at seven concentrations (the eighth being the blank, containing no substrate) ranging from 4 to 400 uM and the unvaried substrate present at saturation. Six microliters of 50-fold concentrated stock solutions of the varied substrate were placed in the wells of the 96-well assay plate and reactions were started with the addition of a mixture containing 25 mM Hepes, pH 7, 100 mM KCl, 0.3 mM 2-amino-6-mercapto-7-methylpurine ribonucleosde, 1 uM (1 unit/ml) purine-nucleoside phosphorylase (Sigma N8264) and 200 uM of the non-varied substrate. Reactions were monitored with a Spectramax plate reader. The Michaelis-Menten kinetics protocol of the Spectramax software was customized for the substrate concentrations used. The software returns values of KM and Vmax using the Lineweaver-Burke transformation of the Michaelis-Menten equation. To determine kcat, Vmax (uM/min) was divided by the enzyme concentration (uM). […] KI was then calculated from the following form of the Michaelis-Menten equation for competitive inhibition: KI=KM[I]/(KM app−KM) KM approximates the dissociation constant of the enzyme-substrate complex while kcat is the rate of conversion of substrate to product when the substrate concentration is saturating. kcat/KM is a widely accepted parameter for catalytic efficiency when substrate concentration is low (˜KM). […] The parameter kcat/KM×KI is used to quantify both catalytic efficiency and insensitivity and thus the overall fitness of the enzyme.
(§2) From the functional diversity identified for each, combinatorial libraries were constructed and screened. […]

[2] = substrate: C=C(OP(=O)(O)O)C(=O)O; experiment: EPSPS substrate saturation kinetics, rice H6; assay type: biochemical, Oryza sativa
Experimental: as §1, with “Six microliters of 50-fold concentrated stock solutions of the varied substrate were placed in the wells of the 96-well assay plate and reactions were started with the addition of a mixture containing 25 mM Hepes, pH 7, 100 mM KCl, 0.3 mM 2-amino-6-mercapto-7-methylpurine ribonucleosde, 1 uM (1 unit/ml) purine-nucleoside phosphorylase (Sigma N8264) and 200 uM of the non-varied substrate.” left out, “reader.” for “reader. The Michaelis-Menten kinetics protocol of the Spectramax software was customized for the substrate concentrations used. The software returns values of KM and Vmax using the Lineweaver-Burke transformation of the Michaelis-Menten equation. To determine kcat, Vmax (uM/min) was divided by the enzyme concentration (uM).”
(§3) Native EPSPS amino acid sequences of rice (Oryza sativa) (SEQ ID NO:7), sorghum (Sorghum halepense) (SEQ ID NO:8), and sunflower (Helianthus annus) (SEQ ID NO:9) including the chloroplast transit peptide sequences were assembled and analyzed for mapping the corresponding amino acid mutations from the maize 868-H6. […]
(§4) ChloroP Prediction Server (Emanuelsson, O. et al. 1999. Protein Sci. 8(5):978-84) was used to approximate the amino terminus of the mature EPSPS proteins. […] The synthetic genes were cloned into a plasmid vector and expressed, purified and analyzed as described in Example 1.

[3] = substrate: C=C(OP(=O)(O)O)C(=O)O; experiment: EPSPS substrate saturation kinetics, sorghum H6; assay type: biochemical, Sorghum halepense
Experimental: as §1, with “Six microliters of 50-fold concentrated stock solutions of the varied substrate were placed in the wells of the 96-well assay plate and reactions were started with the addition of a mixture containing 25 mM Hepes, pH 7, 100 mM KCl, 0.3 mM 2-amino-6-mercapto-7-methylpurine ribonucleosde, 1 uM (1 unit/ml) purine-nucleoside phosphorylase (Sigma N8264) and 200 uM of the non-varied substrate.” left out, “reader.” for “reader. The Michaelis-Menten kinetics protocol of the Spectramax software was customized for the substrate concentrations used. The software returns values of KM and Vmax using the Lineweaver-Burke transformation of the Michaelis-Menten equation. To determine kcat, Vmax (uM/min) was divided by the enzyme concentration (uM).”
as §3, §4

[4] = substrate: C=C(OP(=O)(O)O)C(=O)O; experiment: EPSPS substrate saturation kinetics, WT-FS-E2; assay type: biochemical, Zea mays
Experimental: as §1, with “reader.” for “reader. The Michaelis-Menten kinetics protocol of the Spectramax software was customized for the substrate concentrations used. The software returns values of KM and Vmax using the Lineweaver-Burke transformation of the Michaelis-Menten equation. To determine kcat, Vmax (uM/min) was divided by the enzyme concentration (uM).”
(§5) The vector DNA of the library was transformed into the BL21(DE3) Tuner AroA knockout strain and the cells were plated onto M9 medium containing 50 mM glyphosate. A small aliquot of the transformed cells was plated on LB, by which it was determined that 1.1×10^8 colony forming units, or 20% of the theoretical library size, were plated and screened. […]

[5] = substrate: C=C(OP(=O)(O)O)C(=O)O; experiment: EPSPS substrate saturation kinetics, 868-H6; assay type: biochemical, Zea mays
Experimental: as §1, §2

[6] = substrate: C=C(OP(=O)(O)O)C(=O)O; experiment: EPSPS substrate saturation kinetics, WT-FS-D; assay type: biochemical, Zea mays
Experimental: as §1, with “reader.” for “reader. The Michaelis-Menten kinetics protocol of the Spectramax software was customized for the substrate concentrations used. The software returns values of KM and Vmax using the Lineweaver-Burke transformation of the Michaelis-Menten equation. To determine kcat, Vmax (uM/min) was divided by the enzyme concentration (uM).”, “enzyme. […]” for “enzyme.”
as §5

[7] = substrate: C=C(OP(=O)(O)O)C(=O)O; experiment: EPSPS substrate saturation kinetics, WT-FS-B; assay type: biochemical, Zea mays
Experimental: as §1, with “reader.” for “reader. The Michaelis-Menten kinetics protocol of the Spectramax software was customized for the substrate concentrations used. The software returns values of KM and Vmax using the Lineweaver-Burke transformation of the Michaelis-Menten equation. To determine kcat, Vmax (uM/min) was divided by the enzyme concentration (uM).”, “enzyme. […]” for “enzyme.”
as §5

[8] = substrate: C=C(OP(=O)(O)O)C(=O)O; experiment: EPSPS substrate saturation kinetics, 123-C1; assay type: biochemical, Zea mays
Experimental: as §1, with “enzyme. […]” for “enzyme.”

[9] = substrate: C=C(OP(=O)(O)O)C(=O)O; experiment: EPSPS substrate saturation kinetics, native sorghum; assay type: biochemical, Sorghum halepense
Experimental: as §1, with “Six microliters of 50-fold concentrated stock solutions of the varied substrate were placed in the wells of the 96-well assay plate and reactions were started with the addition of a mixture containing 25 mM Hepes, pH 7, 100 mM KCl, 0.3 mM 2-amino-6-mercapto-7-methylpurine ribonucleosde, 1 uM (1 unit/ml) purine-nucleoside phosphorylase (Sigma N8264) and 200 uM of the non-varied substrate.” left out, “reader.” for “reader. The Michaelis-Menten kinetics protocol of the Spectramax software was customized for the substrate concentrations used. The software returns values of KM and Vmax using the Lineweaver-Burke transformation of the Michaelis-Menten equation. To determine kcat, Vmax (uM/min) was divided by the enzyme concentration (uM).”
as §3, §4

B1: Zea mays EPSPS variant 771-C2 (A4W, H54M, L98C, G102A, K173R, I208L, K243E, E302S, T361S, E391P, D402G, A416G, V438R, S440R, T441Q, F442V), SEQ ID NO:4 (Zea … (protein)
chain: MAGWEEIVLQPIKEISGTVKLPGSKSLSNRILLLAALSEGTTVVDNLLNSEDVMYMLGALRTLGLSVEADKAAKRAVVVGCGGKFPVEDAKEEVQLFCGNAATAMRPLTAAVTAAGGNATYVLDGVPRMRERPIGDLVVGLKQLGADVDCFLGTDCPPVRVNGIGGLPGGKVRLSGSISSQYLSALLMAAPLALGDVEIEIIDKLISLPYVEMTLRLMERFGVKAEHSDSWDRFYIKGGQKYESPKNAYVEGDASSASYFLAGAAITGGTVTVEGCGTTSLQGDVKFAEVLEMMGAKVTWTSTSVTVTGPPREPFGRKHLKAIDVNMNKMPDVAMTLAVVALFADGPTAIRDVASWRVKESERMVAIRTELTKLGASVEEGPDYCIITPPPKLNVTAIDTYGDHRMAMAFSLAACGEVPVTIRDPGCTRKTFPDYFDRLRQVVKN
- Km [1]: 21.0 µM
- kcat [1]: 5.8 s⁻¹
- kcat/Km [1]: 275000 M⁻¹ s⁻¹

B2: Oryza sativa EPSPS with 868-H6 mutations, SEQ ID NO:11 (Oryza sativa; A482G/A67R/A69W/D368S/D468G/E457G/G168A/I274L/K149R/L164C/T345A/T427S/T507Q/V137Q/V504R) (protein)
chain: APARKWEEIVLQPIREISGAVQLPGSKSLSNRILLLSALSEGTTVVDNLLNSEDVHYMLEALKALGLSVEADKQAKRAVVVGCGGRFPVEKDAKEEVQLFCGNAATAMRPLTAAVTAAGGNATYVLDGVPRMRERPIGDLVVGLKQLGADVDCFLGTECPPVRVKGIGGLPGGKVKLSGSISSQYLSALLMAAPLALGDVEIEIIDKLISLPYVEMTLRLMERFGVKAEHSDSWDRFYIKGGQKYKSPGNAYVEGDASSASYFLAGAAITGGTVTVQGCGTASLQGDVKFAEVLEMMGAKVTWTSTSVTVTGPPREPYGKKHLKAVDVNMNKMPDVAMTLAVVALFADGPTAIRDVASWRVKESERMVAIRTELTKLGASVEEGPDYCIITPPGKLNITAIDTYGDHRMAMAFSLAACGDVPVTIRDPGCTRKTFPNYFDRLSQFVRN
- Km [2]: 28.9 µM
- kcat [2]: 4.88 s⁻¹
- kcat/Km [2]: 167000 M⁻¹ s⁻¹

B3: Sorghum halepense EPSPS with 868-H6 mutations, SEQ ID NO:12 (Sorghum halepense; … (protein)
chain: ARGWEEIVLQPIKEISGTVKLPGSKSLSNRILLLAALSEGTTVVDNLLNSEDVHYMLGALNTLGLSVEADKQAKRAVVVGCGGRFPVEDAKEEVQLFCGNAATAMRPLTAAVTAAGGNATYVLDGVPRMRERPIGDLVVGLKQLGADVDCFLGTDCPPVRINGIGGLPGGKVKLSGSISSQYLSALLMAAPLALGDVEIEIIDKLISLPYVEMTLRLMERFGVKAEHSDSWDRFYIKGGQKYKSPKNAYVEGDASSASYFLAGAAITGGTVTVEGCGTASLQGDVKFAEVLEMMGAKVTWTSTSVTVTGPPRQPFGRKHLKAIDVNMNKMPDVAMTLAVVALFADGPTAIRDVASWRVKESERMVAIRTELTKLGASVEEGPDYCIITPPGKLNVTAIDTYGDHRMAMAFSLAACGEVPVTIRDPGCTRKTFPDYFDRLSQFVKN
- Km [3]: 30.6 µM
- kcat [3]: 5.28 s⁻¹
- kcat/Km [3]: 167000 M⁻¹ s⁻¹

B4: Zea mays EPSPS variant WT-FS-E2 (102A 302S 391G 438R I208L) (Zea mays; E301S/E390G/G101A/I207L/V437R) (protein)
chain: MAGAEEIVLQPIKEISGTVKLPGSKSLSNRILLLAALSEGTTVVDNLLNSEDVHYMLGALRTLGLSVEADKAAKRAVVVGCGGKFPVEDAKEEVQLFLGNAATAMRPLTAAVTAAGGNATYVLDGVPRMRERPIGDLVVGLKQLGADVDCFLGTDCPPVRVNGIGGLPGGKVKLSGSISSQYLSALLMAAPLALGDVEIEIIDKLISLPYVEMTLRLMERFGVKAEHSDSWDRFYIKGGQKYKSPKNAYVEGDASSASYFLAGAAITGGTVTVEGCGTTSLQGDVKFAEVLEMMGAKVTWTSTSVTVTGPPREPFGRKHLKAIDVNMNKMPDVAMTLAVVALFADGPTAIRDVASWRVKETERMVAIRTELTKLGASVEEGPDYCIITPPGKLNVTAIDTYDDHRMAMAFSLAACAEVPVTIRDPGCTRKTFPDYFDRLSTFVKN
- Km [4]: 87.7 µM
- kcat [4]: 9.93 s⁻¹
- kcat/Km [4]: 6.80 min^−1uM^−1

B5: Zea mays EPSPS variant 868-H6 (A2R, A4W, A72Q, K84R, L98C, G102A, I208L, T279A, E302S, T361S, E391G, D402G, A416G, V438R, T441Q), SEQ ID NO:5 (Zea mays; … (protein)
chain: B3 chain with A1M, N61R, I161V, Q313E
- Km [5]: 24.0 µM
- kcat [5]: 6.43 s⁻¹
- kcat/Km [5]: 268000 M⁻¹ s⁻¹

B6: Zea mays EPSPS variant WT-FS-D (101S 107L 302S 338S) (Zea mays; A100S/A337S/E301S/P106L) (protein)
chain: B4 chain with A101S, A102G, P107L, L208I, A338S, G391E, R438V
- Km [6]: 20.5 µM
- kcat [6]: 30.9 s⁻¹
- kcat/Km [6]: 92.3 min^−1uM^−1

B7: Zea mays EPSPS variant WT-FS-B (103I 107S 278G 338S) (Zea mays; A337S/P106S/T102I/T277G) (protein)
chain: B4 chain with A102G, T103I, P107S, L208I, T278G, S302E, A338S, G391E, R438V
- Km [7]: 27.7 µM
- kcat [7]: 1.62 s⁻¹
- kcat/Km [7]: 3.57 min^−1uM^−1

B8: Zea mays EPSPS variant 123-C1 (A2R, A4W, K84R, L98C, G102A, I208L, K243E, E391P, D402G), SEQ ID NO:6 (Zea mays; A1R/A3W/D401G/E390P/G101A/I207L/K242E/K83R/L97C) (protein)
chain: B4 chain with A2R, A4W, K84R, L98C, K243E, S302E, G391P, D402G, R438V
- Km [8]: 24.2 µM
- kcat [8]: 7.3 s⁻¹
- kcat/Km [8]: 302000 M⁻¹ s⁻¹

B9: Sorghum halepense EPSPS, native, SEQ ID NO:8 (Sorghum halepense) (protein)
chain: B4 chain with M1A, R61N, A72V, A102G, V161I, L208I, S302E, E313Q, G391E, R438V
- Km [9]: 17.4 µM
- kcat [9]: 50.9 s⁻¹
- kcat/Km [9]: 2.93e+06 M⁻¹ s⁻¹
